The target in test [1] is 3xFLAG::GFP::LOTR-1 with Tudor deletion (sam102) (C. elegans (endogenous in embryos and young adults)). In words: affinity purification with mass spectrometry; anti-FLAG (M2) IP of 3xFLAG::GFP::LOTR-1 (wild type, LOTUS or Tudor deletion) on Protein G magnetic beads from embryo and young adult extracts, 4°C, washes with 300 mM NaCl; quantitative MS against the lotr-1 deletion expressing 3xFLAG::GFP alone.

Test [2] addresses 3xFLAG::GFP::LOTR-1 with e+mLOTUS deletion (sam113) (C. elegans (endogenous in embryos and young adults)). The description is as above.
Test [3] concerns the target T1, 3xFLAG::GFP::ZNFX-1 (C. elegans (endogenous in embryos and …, UniProt E9P860 1-2443)).
T1 construct: ZNFX-1, Z-granule helicase, C. elegans; also called FLAG-tagged ZNFX-1; source: tagged ZNFX-1 expressed in worms, C. elegans embryo and young adult lysate
In words: affinity purification with mass spectrometry; anti-FLAG IP of 3xFLAG::GFP::ZNFX-1 from embryos and adults of lotr-1(xf58) mutants (in-frame deletion that removes most of the LOTUS domain); quantitative MS compared with the wild-type background. Particulars: partners not purified.

T1 sequence (E9P860 whole entry): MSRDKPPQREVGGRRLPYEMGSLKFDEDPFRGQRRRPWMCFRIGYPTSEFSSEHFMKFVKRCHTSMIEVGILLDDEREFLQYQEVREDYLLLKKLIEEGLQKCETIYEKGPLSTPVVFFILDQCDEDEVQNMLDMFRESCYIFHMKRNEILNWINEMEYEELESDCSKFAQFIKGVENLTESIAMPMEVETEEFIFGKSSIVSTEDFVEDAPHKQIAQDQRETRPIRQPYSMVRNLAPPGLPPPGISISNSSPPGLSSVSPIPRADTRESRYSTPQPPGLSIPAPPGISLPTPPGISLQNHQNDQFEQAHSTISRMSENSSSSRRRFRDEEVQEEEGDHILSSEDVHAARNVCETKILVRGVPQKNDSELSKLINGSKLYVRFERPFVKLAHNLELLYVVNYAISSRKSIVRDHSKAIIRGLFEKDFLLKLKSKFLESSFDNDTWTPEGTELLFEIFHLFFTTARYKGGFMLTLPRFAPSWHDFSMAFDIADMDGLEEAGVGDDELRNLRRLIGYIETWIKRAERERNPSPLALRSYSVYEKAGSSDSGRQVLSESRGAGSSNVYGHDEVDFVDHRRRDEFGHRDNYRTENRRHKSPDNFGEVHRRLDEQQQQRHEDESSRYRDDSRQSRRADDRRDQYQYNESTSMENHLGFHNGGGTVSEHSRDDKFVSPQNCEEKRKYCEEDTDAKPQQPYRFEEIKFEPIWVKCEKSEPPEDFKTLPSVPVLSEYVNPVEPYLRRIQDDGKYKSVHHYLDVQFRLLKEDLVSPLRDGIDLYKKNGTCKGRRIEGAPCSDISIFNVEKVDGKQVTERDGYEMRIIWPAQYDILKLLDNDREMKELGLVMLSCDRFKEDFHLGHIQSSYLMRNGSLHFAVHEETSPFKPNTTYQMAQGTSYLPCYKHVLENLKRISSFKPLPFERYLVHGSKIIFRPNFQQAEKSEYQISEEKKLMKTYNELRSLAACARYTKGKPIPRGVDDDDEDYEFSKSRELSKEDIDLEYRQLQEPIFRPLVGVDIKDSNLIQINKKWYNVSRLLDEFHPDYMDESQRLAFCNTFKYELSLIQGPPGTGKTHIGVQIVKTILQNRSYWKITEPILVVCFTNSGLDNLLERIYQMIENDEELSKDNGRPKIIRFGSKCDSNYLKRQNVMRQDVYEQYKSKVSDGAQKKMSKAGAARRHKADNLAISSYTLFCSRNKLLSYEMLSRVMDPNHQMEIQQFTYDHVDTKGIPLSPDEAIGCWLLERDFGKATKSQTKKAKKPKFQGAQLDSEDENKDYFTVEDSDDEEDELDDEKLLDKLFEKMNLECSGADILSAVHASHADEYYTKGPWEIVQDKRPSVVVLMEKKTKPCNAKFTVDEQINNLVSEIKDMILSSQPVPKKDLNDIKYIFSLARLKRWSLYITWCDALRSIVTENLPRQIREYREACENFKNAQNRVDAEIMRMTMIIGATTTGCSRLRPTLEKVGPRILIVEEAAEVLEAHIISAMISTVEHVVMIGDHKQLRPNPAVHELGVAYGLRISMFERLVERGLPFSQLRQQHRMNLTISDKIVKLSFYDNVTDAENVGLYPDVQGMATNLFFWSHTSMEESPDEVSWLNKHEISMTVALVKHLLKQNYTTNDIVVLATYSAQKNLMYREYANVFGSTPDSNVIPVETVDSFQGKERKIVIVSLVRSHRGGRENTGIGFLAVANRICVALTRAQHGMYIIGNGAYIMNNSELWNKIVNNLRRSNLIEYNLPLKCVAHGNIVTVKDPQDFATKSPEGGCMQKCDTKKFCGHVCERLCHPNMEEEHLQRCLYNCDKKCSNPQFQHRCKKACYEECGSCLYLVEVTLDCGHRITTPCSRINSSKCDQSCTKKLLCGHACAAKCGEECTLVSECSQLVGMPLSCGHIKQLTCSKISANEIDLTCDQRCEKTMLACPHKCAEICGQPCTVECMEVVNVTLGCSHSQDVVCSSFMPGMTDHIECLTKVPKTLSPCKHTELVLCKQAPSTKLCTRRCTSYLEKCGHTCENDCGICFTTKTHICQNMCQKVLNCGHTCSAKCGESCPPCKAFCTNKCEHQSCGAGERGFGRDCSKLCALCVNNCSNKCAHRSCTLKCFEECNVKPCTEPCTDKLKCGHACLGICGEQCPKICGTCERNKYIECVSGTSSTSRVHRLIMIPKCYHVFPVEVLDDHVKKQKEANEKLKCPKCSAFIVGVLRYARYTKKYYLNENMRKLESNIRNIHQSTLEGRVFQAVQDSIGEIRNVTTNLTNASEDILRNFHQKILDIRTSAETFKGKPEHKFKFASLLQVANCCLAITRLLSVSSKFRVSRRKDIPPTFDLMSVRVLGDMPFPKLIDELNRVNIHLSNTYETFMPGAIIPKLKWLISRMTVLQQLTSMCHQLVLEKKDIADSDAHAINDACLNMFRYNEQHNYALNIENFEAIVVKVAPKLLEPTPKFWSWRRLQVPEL

In the case of MEG-3 (natural protein), the percent reduction of association against wild-type LOTR-1 (embryos) in test [1] was 90%. The molecule also came in with a fold change of association against wild-type LOTR-1 (embryos) in test [2] of 2 fold.

B1: MIP-2 (natural protein, C. elegans (endogenous in young adults), UniProt P90898 1-666, looked up)
chain: MSEEEGKEKMNKMRKRIERDAYSVLLSFKDGASPKQVEQRMDDTLGYDYCSKYHLAGVYDMAQILIEHPDVRQTYEGKFKIIANEDNQDLVDLISKQSDGPRNKGSSKRGRRSSSSAGYHQRSMFGGELSRSPRYSSCRPRSYASFGKAASKKLFQNFGQPSRPFSVLSSSKASTSSAIQSFGTGNHDSTFGKSSGSNANPTNPPVAPSIQRPLMRPSTASSIPIFILRSGSRSPVKKHVQIKTSSSSSHMPTITEFMNNTKRMMVKELPASVHLSEMTELYEREFGAPVDPLLLFSKSWMLMAKTTFKEFLQVIDGEVSLREKWLADQGTTTKSVLELPSRKVEATTVAQLPISQGFRYQDPNSKPKADLASISKSLDGLTLNARKSKKEASKSDMMPFIPKNHREIVTKRFGNAPSSVKADSIVERVQSTSCIFGRQSVPSVLSISSSSTVVPEKLNEEGLKYDSKELLQLKALKKTDVMLVNVYASLKAFPQMIDARAKALMQQNLEVQRNMASRASLNVVAQVQRPSSSINLQRVRVNPNQCVKKVVPVRTLGQALAEVRRQREQVEQEAFNEQPEPSPSPRLGMGSSSHAASNVSDDGWGAQVVQKVEKSPPKPFTVLLPPMSKGAGVKIRPRSRVVLCHSSASSFPPSLNSDFSPNISQA
notes: MIP-2, LOTUS-domain protein, C. elegans; source: endogenous, C. elegans young adult lysate
Regarding B1, the “fold change of association in lotr-1(xf58) mutant adults against wild type” value in test [3] was determined as 2 fold.
